The assay has as its target S. Typhi PltB (pertussis-like toxin B subunit) homopentamer (Salmonella enterica serovar Typhi) (UniProt Q8Z6A3). The assay is described as follows: […], sodium acetate pH 4.4) […].

What is called stoichiometry N is a count of units in the complex or per binding partner. Regarding “S. Typhi PltB (pertussis-like toxin B subunit) homopentamer (from UniProt Q8Z6A3) (natural protein)”, the stoichiometry N was found to be 5.

These data come from paper PMC7055914.
